Data published in patent publication US20120316071A1.
One block for each substance: values may come before it.

How the values were obtained:
[1] = molecular target: rHuman EGF R/Fc Chimera, CF (R&D Systems Cat#344-ER) (human) (UniProt P00533); assay: ECL multispot (MSD) binding assay, antigen spotted on plate, Fab in solution; blank spot 277
[2] = molecular target: rHuman CD44/Fc Chimera, CF (R&D Systems Cat#3660-CD) (human) (UniProt P16070); assay: as above
[3] = molecular target: rHuman P-Cadherin/Fc Chimera, CF (R&D Systems Cat#861-PC) (human) (UniProt P22223); assay: as above
[4] = molecular target: rHuman Notch-1/Fc Chimera, CF (R&D Systems Cat#3647-TK) (human) (UniProt P46531); assay: as above
[5] = molecular target: rHuman HGF R/c-MET/Fc Chimera, CF (R&D Systems Cat#358-MT/CF) (human) (UniProt P08581); assay: as above
[6] = molecular target: rHuman Erythropoietin R/Fc Chimera, CF (R&D Systems Cat#963-ER) (human) (UniProt P19235); assay: as above
[7] = molecular target: rHuman ErbB2/Fc Chimera, CF (R&D Systems Cat#1129-ER) (human) (UniProt P04626); assay: as above
[8] = molecular target: rHuman IGF-1 sR, CF (R&D Systems Cat#391-GR) (human) (UniProt P08069); assay: as above
[9] = molecular target: rHuman EGF R/Fc Chimera, CF (R&D Systems Cat#344-ER) (human) (UniProt P00533); assay: ECL multispot (MSD) binding assay, antigen spotted on plate, Fab in solution; blank spot 215
[10] = molecular target: rHuman CD44/Fc Chimera, CF (R&D Systems Cat#3660-CD) (human) (UniProt P16070); assay: as above
[11] = molecular target: rHuman P-Cadherin/Fc Chimera, CF (R&D Systems Cat#861-PC) (human) (UniProt P22223); assay: as above
[12] = molecular target: rHuman Notch-1/Fc Chimera, CF (R&D Systems Cat#3647-TK) (human) (UniProt P46531); assay: as above
[13] = molecular target: rHuman HGF R/c-MET/Fc Chimera, CF (R&D Systems Cat#358-MT/CF) (human) (UniProt P08581); assay: as above
[14] = molecular target: rHuman Erythropoietin R/Fc Chimera, CF (R&D Systems Cat#963-ER) (human) (UniProt P19235); assay: as above
[15] = molecular target: rHuman ErbB2/Fc Chimera, CF (R&D Systems Cat#1129-ER) (human) (UniProt P04626); assay: as above
[16] = molecular target: rHuman IGF-1 sR, CF (R&D Systems Cat#391-GR) (human) (UniProt P08069); assay: as above
[17] = molecular target: rHuman EGF R/Fc Chimera, CF (R&D Systems Cat#344-ER) (human) (UniProt P00533); assay: ECL multispot (MSD) binding assay, antigen spotted on plate, Fab in solution; blank spot 321
[18] = molecular target: rHuman CD44/Fc Chimera, CF (R&D Systems Cat#3660-CD) (human) (UniProt P16070); assay: as above
[19] = molecular target: rHuman P-Cadherin/Fc Chimera, CF (R&D Systems Cat#861-PC) (human) (UniProt P22223); assay: as above
[20] = molecular target: rHuman Notch-1/Fc Chimera, CF (R&D Systems Cat#3647-TK) (human) (UniProt P46531); assay: as above
[21] = molecular target: rHuman HGF R/c-MET/Fc Chimera, CF (R&D Systems Cat#358-MT/CF) (human) (UniProt P08581); assay: as above
[22] = molecular target: rHuman ErbB2/Fc Chimera, CF (R&D Systems Cat#1129-ER) (human) (UniProt P04626); assay: as above
[23] = molecular target: rHuman IGF-1 sR, CF (R&D Systems Cat#391-GR) (human) (UniProt P08069); assay: as above
[24] = molecular target: rHuman EGF R/Fc Chimera, CF (R&D Systems Cat#344-ER) (human) (UniProt P00533); assay: ECL multispot (MSD) binding assay, antigen spotted on plate, Fab in solution; blank spot 306
[25] = molecular target: rHuman CD44/Fc Chimera, CF (R&D Systems Cat#3660-CD) (human) (UniProt P16070); assay: as above
[26] = molecular target: rHuman P-Cadherin/Fc Chimera, CF (R&D Systems Cat#861-PC) (human) (UniProt P22223); assay: as above
[27] = molecular target: rHuman Notch-1/Fc Chimera, CF (R&D Systems Cat#3647-TK) (human) (UniProt P46531); assay: as above
[28] = molecular target: rHuman HGF R/c-MET/Fc Chimera, CF (R&D Systems Cat#358-MT/CF) (human) (UniProt P08581); assay: as above
[29] = molecular target: rHuman ErbB2/Fc Chimera, CF (R&D Systems Cat#1129-ER) (human) (UniProt P04626); assay: as above
[30] = molecular target: rHuman IGF-1 sR, CF (R&D Systems Cat#391-GR) (human) (UniProt P08069); assay: as above
[31] = molecular target: rHuman EGF R/Fc Chimera, CF (R&D Systems Cat#344-ER) (human) (UniProt P00533); assay: ECL multispot (MSD) binding assay, antigen spotted on plate, Fab in solution; blank spot 349
[32] = molecular target: rHuman CD44/Fc Chimera, CF (R&D Systems Cat#3660-CD) (human) (UniProt P16070); assay: as above
[33] = molecular target: rHuman P-Cadherin/Fc Chimera, CF (R&D Systems Cat#861-PC) (human) (UniProt P22223); assay: as above
[34] = molecular target: rHuman Notch-1/Fc Chimera, CF (R&D Systems Cat#3647-TK) (human) (UniProt P46531); assay: as above
[35] = molecular target: rHuman HGF R/c-MET/Fc Chimera, CF (R&D Systems Cat#358-MT/CF) (human) (UniProt P08581); assay: as above
[36] = molecular target: rHuman ErbB2/Fc Chimera, CF (R&D Systems Cat#1129-ER) (human) (UniProt P04626); assay: as above
[37] = molecular target: rHuman IGF-1 sR, CF (R&D Systems Cat#391-GR) (human) (UniProt P08069); assay: as above
[38] = molecular target: Recombinant Human DLL4 (delta-like protein 4) (human) (UniProt Q9NR61); assay: ELISA, Fab on coated recombinant human DLL4, signal minus noise
[39] = molecular target: Recombinant Human DLL4 (delta-like protein 4) (human) (UniProt Q9NR61); assay: ECL (MSD electrochemiluminescence) binding assay, Fab on immobilised recombinant human DLL4
[40] = molecular target: rHuman EGF R/Fc Chimera, CF (R&D Systems Cat#344-ER) (human) (UniProt P00533); assay: ECL multispot (MSD) binding assay, antigen spotted on plate, Fab in solution; blank spot 237
[41] = molecular target: rHuman CD44/Fc Chimera, CF (R&D Systems Cat#3660-CD) (human) (UniProt P16070); assay: as above
[42] = molecular target: rHuman P-Cadherin/Fc Chimera, CF (R&D Systems Cat#861-PC) (human) (UniProt P22223); assay: as above
[43] = molecular target: rHuman Notch-1/Fc Chimera, CF (R&D Systems Cat#3647-TK) (human) (UniProt P46531); assay: as above
[44] = molecular target: rHuman HGF R/c-MET/Fc Chimera, CF (R&D Systems Cat#358-MT/CF) (human) (UniProt P08581); assay: as above
[45] = molecular target: rHuman Erythropoietin R/Fc Chimera, CF (R&D Systems Cat#963-ER) (human) (UniProt P19235); assay: as above
[46] = molecular target: rHuman ErbB2/Fc Chimera, CF (R&D Systems Cat#1129-ER) (human) (UniProt P04626); assay: as above
[47] = molecular target: rHuman IGF-1 sR, CF (R&D Systems Cat#391-GR) (human) (UniProt P08069); assay: as above

ECL signal [1]: 745
ECL signal [2]: 591
ECL signal [3]: 334
ECL signal [4]: 566
ECL signal [5]: 803
ECL signal [6]: 584
ECL signal [7]: 989
ECL signal [8]: 827
Substance: Fab VH5-51_IGHD5-18*01>3_IGHJ4*01 G100K/G104T Y52A & V3-4_IGLJ1*01

ECL signal [9]: 803
ECL signal [10]: 517
ECL signal [11]: 432
ECL signal [12]: 612
ECL signal [13]: 875
ECL signal [14]: 497
ECL signal [15]: 1090
ECL signal [16]: 828
Substance: Fab VH5-51_IGHD5-18*01>3_IGHJ4*01 G100K/G104T I51A & V3-4_IGLJ1*01

ECL signal [17]: 915
ECL signal [18]: 600
ECL signal [19]: 365
ECL signal [20]: 523
ECL signal [21]: 1130
ECL signal [22]: 1200
ECL signal [23]: 982
Substance: Fab VH5-51_IGHD5-18*01>3_IGHJ4*01 G100K/G104T D57A & V3-4_IGLJ1*01

ECL signal [24]: 729
ECL signal [25]: 606
ECL signal [26]: 310
ECL signal [27]: 683
ECL signal [28]: 856
ECL signal [29]: 1030
ECL signal [30]: 898
Substance: Fab VH5-51_IGHD5-18*01>3_IGHJ4*01 G100K/G104T D55A & V3-4_IGLJ1*01

ECL signal [31]: 976
ECL signal [32]: 556
ECL signal [33]: 424
ECL signal [34]: 536
ECL signal [35]: 1000
ECL signal [36]: 1140
ECL signal [37]: 943
Substance: Fab VH5-51_IGHD5-18*01>3_IGHJ4*01 G100K/G104T P53A & V3-4_IGLJ1*01

ELISA (Signal-Noise) [38]: 0.03
ECL signal [39]: 823
Substance: Fab VH5-51_IGHD5-18*01>3_IGHJ4*01 G100K/G104T T58D/K & V3-4_IGLJ1*01

ECL signal [40]: 794
ECL signal [41]: 632
ECL signal [42]: 343
ECL signal [43]: 443
ECL signal [44]: 822
ECL signal [45]: 523
ECL signal [46]: 925
ECL signal [47]: 785
Substance: Fab VH5-51_IGHD5-18*01>3_IGHJ4*01 G100K/G104T I50A & V3-4_IGLJ1*01
